Here are results for three molecules from patent publication US20230242635A1 (published 2023).

Positions count from the first letter of the chain named. In names and notes the source's numbering stands.

For assay [1], the target named is canine FcRn complex (FcRn-α subunit and β-microglobulin), biotin labeled by BirA, captured on SA chip (Example 5) (canine). Briefly: SPR (Biacore), biotinylated FcRn captured on SA chip, IgG flowed, pH 6, 15 C.
Assay [2] shares this target. In words: SPR (Biacore), biotinylated FcRn captured on SA chip, IgG flowed, pH 7.4, 15 C. A general note: In SPR one partner is held on a chip, and binding of the other changes the refractive index at the surface.
Assay [3] addresses IL-31 (target protein of mAb1, immobilized). In words: cell-based or functional assay.
In assay [4] the target is canine FcRn complex (FcRn-α subunit and β-microglobulin) with c-terminal 6x His + BAP tag, amine-immobilized (Example 3) (canine). In words: SPR (Biacore), FcRn amine-coupled on CM5, IgG flowed, pH 6, 15 C.
Assay [5] deals with IL-31 (target protein of mAb1, immobilized). In words: SPR (Biacore T200), target amine-coupled on CM5, antibody flowed, 15 C, 1:1 model.
For assay [6], the target named is canine FcRn complex (FcRn-α subunit and β-microglobulin) with c-terminal 6x His + BAP tag, amine-immobilized (Example 3) (canine). Briefly: SPR (Biacore), FcRn amine-coupled on CM5, IgG flowed, pH 7.2, 15 C.

B1: caninized anti-IL31 antibody 11E12 (mAb1 of Table 5), canine IgGB, N434H (antibody, part only; not given: light chain, part only)
heavy: EVQLVQSGAEVKKPGASVKVSCKTSGYTFKYYDINWVRQAPGAGLDWMGWIFPGDGGTKYNETFKGRVTLTADTSTSTAYMELSSLRAGDIAVYYCARGGTSVIRDAMDYWGQGTLVTVSSASTTAPSVFPLAPSCGSTSGSTVALACLVSGYFPEPVTVSWNSGSLTSGVHTFPSVLQSSGLYSLSSMVTVPSSRWPSETFTCNVAHPASKTKVDKPVPKRENGRVPRPPDCPKCPAPEMLGGPSVFIFPPKPKDTLLIARTPEVTCVVVDLDPEDPEVQISWFVDGKQMQTAKTQPREEQFNGTYRVVSVLPIGHQDWLKGKQFTCKVNNKALPSPIERTISKARGQAHQPSVYVLPPSREELSKNTVSLTCLIKDFFPPDIDVEWQSNGQQEPESKYRTTPPQLDEDGSYFLYSKLSVDKSRWQRGDTFICAVMHEALHHHYTQESLSHSPGK
In the case of B1, the Kd (usually the concentration at which binding is half-saturated) in assay [1] amounted to 1 nM; in assay [2] it was 83900 nM.

B2: caninized anti-IL31 antibody 34D03 (mAb1), canine IgGB (65), wild-type (antibody)
heavy: EVQLVESGGDLVKPGGSLRLSCVASGFTFSNYGMSWVRQAPGKGLQWVATISYGGSYTYYPDNIKGRFTISRDNAKNTLYLQMNSLRAEDTAMYYCVRGYGYDTMDYWGQGTLVTVSSASTTAPSVFPLAPSCGSTSGSTVALACLVSGYFPEPVTVSWNSGSLTSGVHTFPSVLQSSGLYSLSSMVTVPSSRWPSETFTCNVAHPASKTKVDKPVPKRENGRVPRPPDCPKCPAPEMLGGPSVFIFPPKPKDTLLIARTPEVTCVVVDLDPEDPEVQISWFVDGKQMQTAKTQPREEQFNGTYRVVSVLPIGHQDWLKGKQFTCKVNNKALPSPIERTISKARGQAHQPSVYVLPPSREELSKNTVSLTCLIKDFFPPDIDVEWQSNGQQEPESKYRTTPPQLDEDGSYFLYSKLSVDKSRWQRGDTFICAVMHEALHNHYTQESLSHSPGK
VL: EIVMTQSPASLSLSQEEKVTITCKASQSVSFAGTGLMHWYQQKPGQAPKLLIYRASNLEAGVPSRFSGSGSGTDFSFTISSLEPEDVAVYYCQQSREYPWTFGQGTKLEIK
With B2, the Kd is 19.9 nM in assay [1], 18700 nM in assay [2], 15 to 24.4 nM in assay [4] and 0.483 nM in assay [5]. The molecule further gave an IC50 (cell based potency assay) in assay [3] of 1.1 nM.

B3: caninized anti-IL31 antibody 34D03 (mAb1), canine IgGB (65), N434H (antibody)
heavy: B2 heavy with N440H
VL: B2 VL
On to B3, for which the Kd in assay [1] is 6.45 nM; in assay [6] it was 5000 nM; in assay [4] it was 0.7 to 1.3 nM; in assay [5], 0.373 nM. The same molecule displayed an IC50 (cell based potency assay) in assay [3] of 0.99 nM.
